Experimental data from the supplement of paper PMC7877785.
± gives the uncertainty stated by the source.

Test: self-splicing fitness, log relative to wild type (ln ratio); higher = more splicing; Tetrahymena group I intron in knt gene, E. coli kanamycin selection, DiMSum; sequences stand for … in CUCUCU…GGAGGGAAAAGUUAUCAGGCAUGCACCUGGUAGCUAGUCUUUAAACCAAUAGAUUGCAUCGGUUUAAAAGGCAAGACCGUCAAAUUGCGGGAAAGGGGUCAACAGCCGUUCAGUACCAAGUCUCAGGGGAAACUUUGAGAUGGCCUUGCAAAGGGUAUGGUAAUAAGCUGACGGACAUGGUCCUAACCACGCAGCCAAGUCCUAAGUCAACAGAUCUUCUGUUGAUAUGGAUGCAGUUCACAGACUAAAUGUCGGUCGGGGAAGAUGUAUUCUUCUCAUAAGAUAUAGUCGGACCUCUCCUUAAUGGGAGCUAGCGGAUGAAGUGAUGCAACACUGGAGCCGCUGGGAACUAAUUUGUAUGCGAAAGUAUAUUGAUUAGUUUUGGAGUACUCGUGGUCG
How it was run: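 Colonies from six replicate transformations of E. coli BL21(DE3) were pooled and amplicon-sequenced on an Illumina HiSeq 2500. The library placed an intron with all eight P1ex-region nucleotides randomised inside the knt kanamycin-resistance gene on pET-22b(+), and cells grew overnight at 37°C or 30°C on LB agar with or without 25 μg/mL kanamycin (plus 100 μg/mL carbenicillin, 50 μM IPTG, 0.2% rhamnose). Fitness is the DiMSum error-weighted combination of wild-type-normalised replicate fold changes, kanamycin versus none.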

Row | Sequence | self-splicing fitness (ln) (30 °C) | self-splicing fitness (ln) (37 °C)
1 | UAUGAGCAAUAUUACGGCGA | -0.815 ± 0.17 | -0.45 ± 0.16
2 | GGACAGCAAUAUUACGUGGA | -1.08 ± 0.076 | -1.29 ± 0.075
3 | ACUUAGCAAUAUUACGUUAC | -3.55 ± 0.26 | -2.55 ± 0.38
4 | AUCCAGCAAUAUUACGGUCA | -0.209 ± 0.065 | 0.168 ± 0.072
5 | AGAAAGCAAUAUUACGUCCC | -0.156 ± 0.18 | 0.119 ± 0.25
6 | AAACAGCAAUAUUACGGUUC | -2.65 ± 0.078 | -2.6 ± 0.12
7 | AACUAGCAAUAUUACGGAUU | -1.16 ± 0.088 | -0.792 ± 0.1
8 | CUCUAGCAAUAUUACGCUUA | -4 ± 0.37 | -3.06 ± 0.27
9 | AUCGAGCAAUAUUACGCACC | -1.65 ± 0.18 | 
10 | CAGAAGCAAUAUUACGAGCC | -3.03 ± 0.47 | -1.82 ± 0.27
11 | UUUUAGCAAUAUUACGCUGA | -1.89 ± 0.36 | -2.31 ± 0.39
12 | GAUAAGCAAUAUUACGGAAG | -3.56 ± 0.35 | -1.95 ± 0.23
13 | AAUCAGCAAUAUUACGUACG | -0.91 ± 0.056 | -0.149 ± 0.075
14 | GACUAGCAAUAUUACGUCCA | -2.24 ± 0.29 | -1.47 ± 0.26
15 | CGGAAGCAAUAUUACGAACA | -1.18 ± 0.12 | -0.826 ± 0.13
16 | ACGGAGCAAUAUUACGAUAC | -2.35 ± 0.18 | -1.98 ± 0.22
17 | AGCAAGCAAUAUUACGAGGU | -3.87 ± 0.42 | -1.96 ± 0.2
18 | GUAAAGCAAUAUUACGGAGC | -2.47 ± 0.2 | -1.71 ± 0.21
19 | GUCAAGCAAUAUUACGCAAU | -2 ± 0.061 | -1.32 ± 0.076
20 | AGUGAGCAAUAUUACGUACU | -1.71 ± 0.13 | -1.15 ± 0.17

Row | Sequence | self-splicing fitness (ln) (30 °C) | self-splicing fitness (ln) (37 °C)
21 | AUAAAGCAAUAUUACGUAAU | -0.762 ± 0.081 | -0.869 ± 0.094
22 | CAGAAGCAAUAUUACGAAUC |  | -1.93 ± 0.38
23 | ACCCAGCAAUAUUACGGCAU | -0.483 ± 0.042 | 0.0474 ± 0.058
24 | ACAAAGCAAUAUUACGACUC | -0.72 ± 0.11 | -0.304 ± 0.12
25 | GUCGAGCAAUAUUACGUUGA | -2.98 ± 0.16 | -3.79 ± 0.34
26 | GUGAAGCAAUAUUACGUUGA | -1.56 ± 0.078 | -0.398 ± 0.093
27 | GUAAAGCAAUAUUACGUGGG | -3.28 ± 0.18 | -2.91 ± 0.14
28 | CAGAAGCAAUAUUACGAAGC | -2.87 ± 0.31 | 
29 | AACCAGCAAUAUUACGUAAU | -1.45 ± 0.055 | -0.238 ± 0.069
30 | GUAUAGCAAUAUUACGACGG | -4.18 ± 0.37 | -2.33 ± 0.35
31 | UGGUAGCAAUAUUACGACCG | -1.22 ± 0.22 | -0.981 ± 0.27
32 | CGUGAGCAAUAUUACGUGCC |  | -1.78 ± 0.39
33 | AACUAGCAAUAUUACGGAUC | -1.78 ± 0.17 | -1.37 ± 0.12
34 | UGUUAGCAAUAUUACGGCCG | 0.71 ± 0.11 | 0.567 ± 0.17
35 | AACUAGCAAUAUUACGUAGA | -1.76 ± 0.079 | -0.779 ± 0.11
36 | AACUAGCAAUAUUACGCCCG | -1.11 ± 0.18 | -0.346 ± 0.23
37 | CUGCAGCAAUAUUACGCCGU |  | -1.3 ± 0.31
38 | AGCGAGCAAUAUUACGCACA | -2.76 ± 0.29 | -1.06 ± 0.18
39 | AAACAGCAAUAUUACGUAGA | -2.31 ± 0.1 | -0.368 ± 0.092
40 | GUAGAGCAAUAUUACGAUUC | -0.192 ± 0.1 | 0.716 ± 0.14
